Tests used:
Format in all cases: cell-based
preadipocytes = assay: Transmission electron microscopy of mitochondria in preadipocytes; conditions: preadipocytes overexpressing FGF6 vs control
Protocol: To determine if FGF6 treatment affects the overall health condition of mitochondria, mitochondrial attributes such as mitochondria biogenesis, mass, morphology and dynamics were measured. Mitochondrial mass was measured by a cell-permeable dye (MitoTracker Green FM) and by transmission electron microscopy (EM). MitoTracker Green FM accumulates in mitochondria in live cells irrespective of mitochondrial membrane potential. The intensity of fluorescence was visualized by microscopy and quantitated by flow cytometry. Mitochondrial morphology and ultra-structure (such as cristae and granules) was assessed by EM.

UCP1 = UCP1 expression in immortalized human brown fat progenitors
Protocol: Primary stromal-vascular fraction (SVF) from human neck fat was isolated as described previously (Cannon and Nedergaard, Physiol Rev, 84: 277-359, 2004). Briefly, freshly resected superficial fat (pooled subcutaneous and subplatysmal) and fat located in the deeper neck regions (pooled carotid sheath, longus colli and prevertebral) were collected, minced and digested using collagenase 1 (2 mg/mL in PBS with the addition of 3.5% BSA; Worthington Biochemical Corporation, Lakewood, N.J.), and the SVF was isolated. SVF cells were plated and grown in high glucose Dulbecco's modified Eagle's medium (DMEM/H) supplemented with 10% (v/v) fetal bovine serum (FBS) and 1% penicillin/streptomycin. For adipocyte differentiation, cells were grown to confluent for 6 days (day 6) and then exposed to adipogenic induction mixture in DMEM/H medium containing isobutylmethylxanthine (0.5 mM), dexamethasone (0.1 μM), human insulin (0.5 μM; Roche Applied Science, Indianapolis, Ind.), T3 (2 nM), indomethacin (30 μM), pantothenate (17 μM), biotin (33 μM) and 2% FBS for another 12 days (referred as day 18). Induction medium was changed every 3 days until collected.
Primary SVF cells were immortalized with human telomere reverse transcriptase (hTERT) as described previously (Tchkonia, T., et al. Diabetes 55, 2571-2578, 2006). […]

mature brown adipocytes = assay: Glucose uptake in mature brown adipocytes; conditions: vs control
Protocol: The following glucose uptake assay was used to determine whether FGF6 could impact cellular glucose uptake. Specifically, glucose uptake was monitored in WT-1 brown preadipocytes and 3T3-F442A white preadipocytes in the presence or absence of FGF6. After serum starvation in DMEM/H medium containing 1% of BSA for 2-3 h, cells were washed with HEPES buffer and then incubated with or without 100 nM insulin for 30 min in DMEM/H medium containing 1% of BSA. Glucose transport was determined by the addition of 2-deoxy-[3H]glucose (0.1 mM, 0.5 μCi/mL; PerkinElmer Life and Analytical Science, Waltham, Mass.). […] Cells were then lysed in 0.1% SDS, and glucose uptake was assessed in 4 mL of scintillant using Beckman LS6500 scintillation counter (Beckman Coulter, Indianapolis Ind.). Nonspecific 2-deoxy-[3H]glucose uptake was measured in the presence of cytochalasin B (20 μM) and was subtracted from the total uptake to get specific glucose uptake. Results were expressed as the mean±s.e.m. of the indicated number of experiments. The protein content was determined by the Bradford method.
To assess mitochondrial respiration, a Seahorse Extracellular Flux Analyzer (Seahorse Bioscience Inc., North Billerica, Mass.) was used to quantify oxygen consumption rates (OCR) of differentiated human brown adipocytes. […] After adipogenic induction for 8 days, OCR was analyzed. […]

B1: FGF6: fibroblast growth factor 6; recombinant human FGF from R&D Systems, or mouse FGF6 cDNA overexpressed by lentiviral vector (protein)
chain: KRQRRLYCNVGIGFHLQVLPDGRISGTHEENPYSLLEISTVERGVVSLFGVRSALFVAMNSKGRLYATPSFQEECKFRETLLPNNYNAYESDLYQGTYIALSKYGRVKRGSKVSPIMTVTHFLPRI
preadipocytes
  number of mitochondria by transmission electron microscopy: fewer mitochondria
  shape of mitochondria by transmission electron microscopy: longer shape
UCP1
  increase in UCP1 expression in human brown fat precursors: ~60 fold
Mature brown adipocytes
  glucose uptake in mature brown adipocytes: enhanced

From patent US20170173114A1, “METHODS AND COMPOSITIONS FOR INDUCTION OF UCP1 EXPRESSION” (Joslin Diabetes Center, Inc., priority 2014, published 2017)
